According to patent publication US20200011878A1 (published 2020):
Residue numbers refer to the chain shown, from its start. Values belong to the binder of their own block, whether it stands above or below them.

Molecular target: human NRP1 protein (human, UniProt O14786 22-856)
Assay: ELISA

Kd: 1110 nM
B1: 1A03 anti-NRP1 IgG antibody (antibody, V domains shown)
VH: EVQLLESGGGLVQFGGSLRLSQAASGFTFSSYYMSWVRQAFGKGLEWVSAISFGSSNKYYADSVQGRFTISRDNSKNTLYLQMNELRAEDTAVYYCARRKKSFDYWGQGTLVTVSS
VL: QSVLTQFFSASGTPGQRVTISCSGFSSNIGNNDVSWYQQLFGTAPKLLIYSCNNRPSGVPDRFSGSKSGTSASLAISGLRSSDEADYYCGAWVASLSAYVFGGGTKLTVTL

Kd: 426 nM
B2: IRCR-101 (3H10 converted into IgG format) (antibody, V domains shown)
VH: B1 VH with G15Q, G16Q, G26Q, F53P, Q65K, K101Y, S102M
VL: GSVLTQPPSASGTPGQRVTISCTGESSNIGNNDVYWYQQLPGTAFKLLIYSQSNRPSGMPDRFSGSKSGTSASLAISGLRSEDEADYYCASWDSSLSGYVFGGGTKLTVTL
